Test results taken from patent US20240116985A1, “STAPLED PEPTIDES AND METHODS THEREOF” (priority 2020, published 2024).
Starred links: 1 amine or outer side, 2 acyl side, 3 side chain; linkers in the order of their positions; H or OH if unused. Positions of bridges follow the written chain, without caps; N, C: chain ends. Non-standard residues stand in square brackets, D forms with d. Primed or numbered codes have the meaning given here. PyrS2″ = (S)-3-amino-1-((pent-4-en-1-yloxy)carbonyl)pyrrolidine-3-carboxylic acid (stapling residue), C=CCCCOC(=O)N1CC[C@@](N[*:1])(C(=O)[*:2])C1; B5(5) = 2,2-bis(4-pentenyl)glycine, 2-amino-2-(pent-4-en-1-yl)hept-6-enoic acid (stitching residue), C=CCCCC(CCCC=C)(N[*:1])C(=O)[*:2]; TfeGA = (S)-2-amino-3-((carboxymethyl)(2,2,2-trifluoroethyl)amino)propanoic acid, O=C([C@H](CN(CC(=O)[*:3])CC(F)(F)F)N[*:1])[*:2]; PyrS2 = (S)-3-amino-1-((pent-4-en-1-yloxy)carbonyl)pyrrolidine-3-carboxylic acid, C=CCCCOC(=O)N1CC[C@@](N[*:1])(C(=O)[*:2])C1; SPip2 = 4-amino-1-((pent-4-en-1-yloxy)carbonyl)piperidine-4-carboxylic acid, C=CCCCOC(=O)N1CCC(N[*:1])(C(=O)[*:2])CC1; B5(12) = 2-amino-2-(pent-4-en-1-yl)hept-6-enoic acid (two olefin side chains), C=CCCCC(CCCC=C)(N[*:1])C(=O)[*:2]; B5(25) = 2-amino-2-(pent-4-en-1-yl)hept-6-enoic acid (stitching residue), C=CCCCC(CCCC=C)(N[*:1])C(=O)[*:2]; EtGA = (S)-2-amino-3-((carboxymethyl)(ethyl)amino)propanoic acid, CCN(CC(=O)[*:3])C[C@H](N[*:1])C(=O)[*:2]; B5 = 2-amino-2-(pent-4-en-1-yl)hept-6-enoic acid, C=CCCCC(CCCC=C)(N[*:1])C(=O)[*:2]; Phe(3-COOH) = N[C@@H](Cc1cccc(C(=O)O)c1)C(=O)O; Phe(2-CF3) = N[C@@H](Cc1ccccc1C(F)(F)F)C(=O)O; Phe(2-Cl) = N[C@@H](Cc1ccccc1Cl)C(=O)O; Bta = N[C@@H](Cc1csc2ccccc12)C(=O)O; αAllylPro = C=CC[C@@]1(C(=O)O)CCCN1; tBuAla = CC(C)(C)C[C@H](N)C(=O)O; 3Thi = N[C@@H](Cc1ccsc1)C(=O)O; S8 = C=CCCCCCC[C@](C)(N)C(=O)O; Aib = CC(C)(N)C(=O)O

B1: I-2579 (peptide)
peptide: Ac-[αAllylPro]D[tBuAla][B5]D[Phe(3-COOH)][Aib]AFK(Ac)[PyrS2][Phe(2-CF3)][Bta]AA-NH2
modifications: staple 1-4, 4-11; not fully specified; printed as Ac-PL3-Asp-Npg-B5-Asp-3COOHF-Aib-Ala-Phe-AcLys-PyrS2-2F3MeF-BztA-Ala-Ala-NH2
B2: I-2593 (peptide)
peptide: Ac-[αAllylPro]D[tBuAla][B5]D[Phe(3-COOH)]QAFL[SPip2][3Thi][Bta]A-NH2
modifications: staple 1-4; staple 4-11 (inferred); also: later-eluting HPLC staple isomer composition
B3: I-2577 (peptide)
peptide: Ac-[αAllylPro]D[tBuAla][B5(25)]D[Phe(3-COOH)][Aib]AFS[PyrS2″][3Thi][Bta]SA-NH2
modifications: staple 1-4, 4-11 (inferred); not fully specified; printed as Ac-PL3-Asp-Npg-B5-Asp-3COOHF-Aib-Ala-Phe-Ser-PyrS2-3Thi-BztA-Ser-Ala-NH2
B4: I-2576 (peptide)
peptide: Ac-[αAllylPro]D[tBuAla][B5(25)]D[Phe(3-COOH)][Aib]AF[dS][PyrS2″][3Thi][Bta][dS]A-NH2
modifications: staple 1-4, 4-11 (inferred); not fully specified; printed as Ac-PL3-Asp-Npg-B5-Asp-3COOHF-Aib-Ala-Phe-dSer-PyrS2-3Thi-BztA-dSer-Ala-NH2
B5: I-610 (peptide)
peptide: Ac-[αAllylPro]DI[B5]D[TfeGA]AAFQ[S8]F[Bta]Q-NH2
modifications: staple 1-4, 4-11; not fully specified
B6: I-608 (peptide)
peptide: Ac-[αAllylPro]DI[B5(5)]D[EtGA]AAFQ[S8]F[Bta]Q-NH2
modifications: staple 1-4, 4-11; not fully specified; printed as Ac-PL3-Asp-Ile-B5-Asp-EtGa-Ala-Ala-Phe-Gln-S8-Phe-BztA-Gln-NH2
B7: I-609 (peptide)
peptide: Ac-[αAllylPro]DI[B5(5)]D[EtGA]AAFQ[S8]F[Bta]Q-NH2
modifications: staple 1-4, 4-11; also: staple isomer 2, later eluting HPLC peak
B8: I-859 (peptide)
peptide: Ac-[αAllylPro]D[tBuAla][B5(12)]DTAAFN[PyrS2][3Thi][Bta]-NH2
modifications: staple 1-4, 4-11; also: earlier eluting staple isomer
B9: I-858 (peptide)
peptide: Ac-[αAllylPro]D[tBuAla][B5(12)]DQAAFN[PyrS2][3Thi][Bta]-NH2
modifications: staple 1-4, 4-11
B10: I-863 (peptide)
peptide: Ac-[αAllylPro]D[tBuAla][B5(12)]DHAAFN[PyrS2][3Thi][Bta]-NH2
modifications: staple 1-4, 4-11
B11: I-2032 (peptide)
peptide: Ac-[αAllylPro]D[tBuAla][B5(5)]D[Phe(3-COOH)]AAFN[PyrS2″][Phe(2-Cl)][Bta]V-NH2
modifications: staple 1-4, 4-11
B12: I-2029 (peptide)
peptide: Ac-[αAllylPro]D[tBuAla][B5(5)]D[Phe(3-COOH)]AAFS[PyrS2″][Phe(2-Cl)][Bta]F-NH2
modifications: staple 1-4, 4-11
B13: I-2028 (peptide)
peptide: Ac-[αAllylPro]D[tBuAla][B5(5)]D[Phe(3-COOH)]AAFS[PyrS2″][Phe(2-Cl)][Bta]V-NH2
modifications: staple 1-4, 4-11

Target: full-length beta-Catenin (Uniprot ID P35222) (Homo sapiens (Human)) (UniProt P35222)
Assay: fluorescence polarization competition; full-length beta-catenin, 5FAM-TCF4 10-53 probe as competitor
Target sequence in this assay (P35222 whole entry, the tested form may be a part): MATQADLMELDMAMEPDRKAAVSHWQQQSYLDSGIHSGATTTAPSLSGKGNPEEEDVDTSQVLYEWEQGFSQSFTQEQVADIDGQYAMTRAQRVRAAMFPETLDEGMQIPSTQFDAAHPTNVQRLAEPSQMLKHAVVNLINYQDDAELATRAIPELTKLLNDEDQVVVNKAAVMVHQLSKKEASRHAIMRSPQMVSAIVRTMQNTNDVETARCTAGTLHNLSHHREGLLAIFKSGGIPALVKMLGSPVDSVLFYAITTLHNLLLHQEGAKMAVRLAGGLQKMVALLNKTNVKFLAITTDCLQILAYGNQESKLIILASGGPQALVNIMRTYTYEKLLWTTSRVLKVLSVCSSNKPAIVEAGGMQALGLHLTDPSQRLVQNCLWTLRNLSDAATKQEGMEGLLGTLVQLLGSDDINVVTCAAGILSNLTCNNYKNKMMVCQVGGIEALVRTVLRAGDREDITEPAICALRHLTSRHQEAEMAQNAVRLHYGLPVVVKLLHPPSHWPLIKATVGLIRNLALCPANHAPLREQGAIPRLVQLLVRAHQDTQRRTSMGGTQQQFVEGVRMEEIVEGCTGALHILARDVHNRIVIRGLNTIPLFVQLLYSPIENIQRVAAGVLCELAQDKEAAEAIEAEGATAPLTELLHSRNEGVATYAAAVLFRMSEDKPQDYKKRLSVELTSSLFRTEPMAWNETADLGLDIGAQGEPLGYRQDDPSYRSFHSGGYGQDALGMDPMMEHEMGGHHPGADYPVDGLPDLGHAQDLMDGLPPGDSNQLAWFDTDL

IC50 [nM] | Binder
41 | B1
27 | B2
7 | B3
6 | B4

Target: full-length beta-Catenin (Uniprot ID P35222) (Homo sapiens (Human)) (UniProt P35222)
Assay: fluorescence polarization competition; full-length beta-catenin, 5FAM-TCF4 10-53 probe
Target sequence in this assay (P35222 whole entry, the tested form may be a part): as above

IC50 [nM] | Binder
54 | B5
211 | B6
80 | B7

Target: full-length beta-Catenin (Uniprot ID P35222) (Homo sapiens (Human)) (UniProt P35222)
Assay: fluorescence polarization competition; 10 nM full-length beta-catenin with 10 nM 5FAM-TCF4 (residues 10-53) probe as competitor
Target sequence in this assay (P35222 2-781 limits assumed): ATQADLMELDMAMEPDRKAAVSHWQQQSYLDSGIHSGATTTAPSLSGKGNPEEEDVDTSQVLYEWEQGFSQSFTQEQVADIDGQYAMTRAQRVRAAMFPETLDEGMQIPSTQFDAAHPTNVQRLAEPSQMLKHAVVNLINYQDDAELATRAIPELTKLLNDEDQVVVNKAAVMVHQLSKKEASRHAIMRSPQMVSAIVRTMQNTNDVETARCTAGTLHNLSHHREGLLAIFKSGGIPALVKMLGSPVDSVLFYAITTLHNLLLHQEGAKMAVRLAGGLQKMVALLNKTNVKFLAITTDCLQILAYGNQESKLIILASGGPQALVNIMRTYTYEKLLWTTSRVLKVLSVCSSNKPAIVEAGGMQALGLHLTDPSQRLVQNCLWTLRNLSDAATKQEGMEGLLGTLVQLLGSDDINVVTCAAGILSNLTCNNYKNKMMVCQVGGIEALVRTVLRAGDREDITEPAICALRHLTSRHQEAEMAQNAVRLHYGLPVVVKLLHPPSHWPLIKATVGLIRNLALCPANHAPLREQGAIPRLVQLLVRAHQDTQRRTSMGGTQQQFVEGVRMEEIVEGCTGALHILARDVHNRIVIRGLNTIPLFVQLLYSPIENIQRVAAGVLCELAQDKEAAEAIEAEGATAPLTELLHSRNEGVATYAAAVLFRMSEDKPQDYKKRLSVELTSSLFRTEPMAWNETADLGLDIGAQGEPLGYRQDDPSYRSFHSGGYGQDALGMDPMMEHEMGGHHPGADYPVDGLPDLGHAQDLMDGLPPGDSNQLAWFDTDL

EC50 [nM] | Binder
36 | B8
34 | B9
22 | B10

Target: Bcat-Halo (UniProt P35222)
Assay: NanoBRET Abs IC50, HEK293 cells, B-cat-Halo/TCF4-Luc; competitor TCF4-Luc

Chain of Bcat-Halo (P35222 whole entry): as the sequence (P35222 whole entry, the tested form may be a part) above

IC50 [nM] | Binder
> 20000 | B8
> 20000 | B9
> 20000 | B10

Target: Bcat-Halo (UniProt P35222)
Assay: NanoBRET (Abs IC50) in HEK293 cells; Bcat-Halo / TCF4-Luc

IC50 [nM] | Binder
20900 | B11
26200 | B12
17600 | B13

Target: full-length beta-Catenin (Uniprot ID P35222) (Homo sapiens (Human)) (UniProt P35222)
Assay: fluorescence polarization competition; full-length beta-catenin with 5FAM-TCF4(10-53) probe as competitor
Target sequence in this assay (P35222 whole entry, the tested form may be a part): as above

IC50 [nM] | Binder
54 | B5
211 | B6
80 | B7

Target: full-length beta-Catenin (Uniprot ID P35222) (Homo sapiens (Human)) (UniProt P35222)
Assay: FP competition; full-length beta-catenin + 5FAM-TCF4(10-53) probe
Target sequence in this assay (P35222 whole entry, the tested form may be a part): as above

IC50 [nM] | Binder
16 | B11
35 | B12
32 | B13

Target: full-length beta-Catenin (Uniprot ID P35222) (Homo sapiens (Human)) (UniProt P35222)
Assay: fluorescence polarization competition; full-length beta-catenin, competitor 5FAM-TCF4(10-53) probe
Target sequence in this assay (P35222 whole entry, the tested form may be a part): as above

EC50 [nM] | Binder
54 | B5
211 | B6
80 | B7

Target: full-length beta-Catenin (Uniprot ID P35222) (Homo sapiens (Human)) (UniProt P35222)
Assay: FP competition vs 5FAM-TCF4(10-53), full-length beta-catenin
Target sequence in this assay (P35222 2-781 limits assumed): as the sequence (P35222 2-781 limits assumed) above

IC50 [nM] | Binder
36 | B8
34 | B9
22 | B10

Target: Bcat-Halo (UniProt P35222)
Assay: NanoBRET Abs IC50; B-cat-Halo / TCF4-Luc engagement in HEK293 cells

IC50 [nM] | Binder
4700 | B1
29400 | B2
2700 | B3
16100 | B4
